Measured values: publication PMC9891502

Target: CMV gB ectodomain protein (human cytomegalovirus) (UniProt P13201)

B1: TRL345 (antibody, V domains shown)
VH: QVQLVESGGGVVQPGRSLRLSCAASGFTFSDYNMHWVRQAPGKGLEWVAVISIDGTYKYSADSVAGRFSLSRDNSKNTLYLQMNSLRPDDTAIYYCARDGRSVGGFSGILDPWGQGTLVTVSS
VL: EIVMTQSPATLSLSPGDRATLSCRASQSVGSYLAWYQQKPGQAPRLLMYDSSVRATGIPARFSGSGSGTDFTLTISSLEPEDFAVYYCQQRNNWPPLTFGGGTKVEIK
For B1, the neutralization of CMV strain AD169rUL131-GFP on ARPE epithelial cells, IC50 was 0.3 µg/mL, the neutralization of CMV strain AD169rUL131-GFP on MRC-5 fibroblasts, IC50 was 0.24 µg/mL and the neutralization of CMV strain Toledo on MRC-5 fibroblasts, IC50 was 0.19 µg/mL. It also gave a neutralization of CMV strain Towne on MRC-5 fibroblasts, IC50 of 0.21 µg/mL.
